Data: publication PMC9262599, “DNA G-quadruplex structure participates in regulation of lipid metabolism through acyl-CoA binding protein”

Experiments:
BmLARK [1] = molecular target: T1, BmLARK (Bombyx mori, UniProt Q5I7M6 1-343); test: EMSA; 50 mM K+; 10 mM Tris pH 7.5, 50 mM KCl, 1 mM DTT, room temperature, 20 min; 2 uM probe, 2 ug BmLARK or 1 ug BG4 in 20 ul; 4% PAGE on ice; conditions: protein: recombinant; tags: GST (pGEX-6P-1); label: 5' 6-FAM
BmLARK [2] = molecular target: T1, BmLARK; test: EMSA; 50 mM K+; reduced by unlabelled same-sequence competitor; 10 mM Tris pH 7.5, 50 mM KCl, 1 mM DTT, room temperature, 20 min; 2 uM probe, 2 ug BmLARK or 1 ug BG4 in 20 ul; 4% PAGE on ice; conditions: protein: recombinant; tags: GST (pGEX-6P-1); label: 5' 6-FAM; G-quadruplex

T1 sequence (Q5I7M6 entry or part of it): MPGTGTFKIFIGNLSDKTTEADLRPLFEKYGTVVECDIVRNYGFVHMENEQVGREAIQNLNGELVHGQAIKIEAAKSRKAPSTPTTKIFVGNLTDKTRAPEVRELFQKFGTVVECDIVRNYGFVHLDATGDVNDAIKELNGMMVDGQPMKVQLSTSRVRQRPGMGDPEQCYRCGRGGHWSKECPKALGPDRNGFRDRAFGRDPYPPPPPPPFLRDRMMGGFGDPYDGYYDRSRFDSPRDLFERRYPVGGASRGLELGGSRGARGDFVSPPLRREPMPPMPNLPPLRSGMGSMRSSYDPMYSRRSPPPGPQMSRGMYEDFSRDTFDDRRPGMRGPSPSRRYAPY

| Binder | binding result (BmLARK [1]) | binding result (BmLARK [2]) |
| --- | --- | --- |
| GTCGTGAAGGTGTTGATGGAGTGTAGGTT (ssDNA) [FAM-Mut BmACBP G4] | no binding | – |
| GTCGGGAAGGGGTTGGGGGGGGGTAGGTT (structured_DNA) [FAM-BmACBP G4 (folded with K+)] | – | binds |
